Measured values published in FireProtDB (doi:10.1016/0022-2836(91)90566-o).

Details: Enterobacteria phage fd; pH 7; 25 °C; GdnHCl; CD; MOPS 50 mM; NaCl 100 mM; reversible: yes; whole UniProt chain shown

B1: DNA-Binding protein G5P wild type, P69542 (protein)
chain: MIKVEIKPSQAQFTTRSGVSRQGKPYSLNEQLCYVDLGNEYPVLVKITLDEGQPAYAPGLYTVHLSSFKVGQFGSLMIDRLRLVPAK
Q: With B1 as the protein, how does the denaturant m value read?
A: Its denaturant m value is 3.6 kcal/mol/M.

Q: And the “denaturant midpoint (higher = more stable)” value?
A: The value was 2.61 M.

Q: What about the unfolding free energy of the same protein?
A: Its unfolding free energy is 9 kcal/mol.
